In publication PMC12728192 (2025):
Ends that are not written are not given here.

Columns and labels:
[1] = molecular target: T1, Thermothelomyces thermophilus SAM complex (sorting and assembly machinery complex; Sam50:Sam35:Sam37, monomer) (Thermothelomyces thermophilus); assay: MST; replicate 1; detergent
[2] = molecular target: T1, Thermothelomyces thermophilus SAM …; assay: MST; replicate 6; detergent
[3] = molecular target: T1, Thermothelomyces thermophilus SAM …; assay: MST; replicate 3; detergent

T1 sequence (chain, as listed by the source, chain 1 of 3): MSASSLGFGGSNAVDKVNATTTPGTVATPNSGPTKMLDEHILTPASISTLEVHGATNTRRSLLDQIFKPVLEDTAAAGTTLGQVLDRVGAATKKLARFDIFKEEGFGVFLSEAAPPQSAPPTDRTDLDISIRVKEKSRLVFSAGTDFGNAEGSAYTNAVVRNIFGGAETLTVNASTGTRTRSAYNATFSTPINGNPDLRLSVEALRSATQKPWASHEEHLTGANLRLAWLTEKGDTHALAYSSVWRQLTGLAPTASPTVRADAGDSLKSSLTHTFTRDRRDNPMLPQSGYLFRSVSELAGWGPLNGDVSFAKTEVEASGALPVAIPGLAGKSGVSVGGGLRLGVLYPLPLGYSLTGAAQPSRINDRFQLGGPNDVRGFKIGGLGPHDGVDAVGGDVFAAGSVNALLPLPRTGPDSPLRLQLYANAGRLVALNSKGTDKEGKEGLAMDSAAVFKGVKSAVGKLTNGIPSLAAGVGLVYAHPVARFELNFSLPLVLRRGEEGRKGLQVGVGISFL
T1 sequence (chain, as listed by the source, chain 2 of 3): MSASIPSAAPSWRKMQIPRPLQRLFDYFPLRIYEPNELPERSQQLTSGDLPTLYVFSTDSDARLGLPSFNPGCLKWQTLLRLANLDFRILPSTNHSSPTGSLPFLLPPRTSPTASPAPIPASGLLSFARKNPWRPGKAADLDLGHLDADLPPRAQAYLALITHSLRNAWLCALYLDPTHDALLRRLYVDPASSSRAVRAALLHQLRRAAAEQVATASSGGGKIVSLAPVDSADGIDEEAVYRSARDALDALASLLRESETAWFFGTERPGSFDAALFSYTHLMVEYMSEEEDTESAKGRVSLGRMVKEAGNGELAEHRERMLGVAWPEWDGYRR
T1 sequence (chain, as listed by the source, chain 3 of 3): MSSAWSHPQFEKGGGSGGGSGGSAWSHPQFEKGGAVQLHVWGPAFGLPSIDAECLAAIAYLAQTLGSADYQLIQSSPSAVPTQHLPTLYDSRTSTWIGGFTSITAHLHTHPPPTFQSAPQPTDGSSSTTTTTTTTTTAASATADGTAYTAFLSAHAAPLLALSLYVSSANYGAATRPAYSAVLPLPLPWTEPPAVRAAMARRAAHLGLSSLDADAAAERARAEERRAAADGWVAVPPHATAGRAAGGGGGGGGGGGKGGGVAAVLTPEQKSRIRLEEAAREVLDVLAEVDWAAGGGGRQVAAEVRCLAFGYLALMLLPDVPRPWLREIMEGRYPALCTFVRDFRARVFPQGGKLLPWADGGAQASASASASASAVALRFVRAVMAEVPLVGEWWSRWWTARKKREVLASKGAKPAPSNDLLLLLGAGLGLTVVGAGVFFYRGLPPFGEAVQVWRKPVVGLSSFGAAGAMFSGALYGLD

Row | Binder | Kd [1] [nM] | Kd [2] [nM] | Kd [3] [nM]
1 | WNWSKSF (also: backbone cyclizations, places not given here) [darobactin A] | 149 | 166 | –
2 | WNWSKSF [linear darobactin] | – | – | 491000
